In paper PMC7382273, “Rubisco accumulation factor 1 (Raf1) plays essential roles in mediating Rubisco assembly and carboxysome biogenesis” (Proceedings of the National Academy of Sciences of the …, 2020):

B1: Rubisco large subunit RbcL (Synechococcus elongatus PCC7942), recombinant, in the RbcL-Raf1 supercomplex (natural protein, UniProt Q31NB3 1-472, looked up)
chain: MPKTQSAAGYKAGVKDYKLTYYTPDYTPKDTDLLAAFRFSPQPGVPADEAGAAIAAESSTGTWTTVWTDLLTDMDRYKGKCYHIEPVQGEENSYFAFIAYPLDLFEEGSVTNILTSIVGNVFGFKAIRSLRLEDIRFPVALVKTFQGPPHGIQVERDLLNKYGRPMLGCTIKPKLGLSAKNYGRAVYECLRGGLDFTKDDENINSQPFQRWRDRFLFVADAIHKSQAETGEIKGHYLNVTAPTCEEMMKRAEFAKELGMPIIMHDFLTAGFTANTTLAKWCRDNGVLLHIHRAMHAVIDRQRNHGIHFRVLAKCLRLSGGDHLHSGTVVGKLEGDKASTLGFVDLMREDHIEADRSRGVFFTQDWASMPGVLPVASGGIHVWHMPALVEIFGDDSVLQFGGGTLGHPWGNAPGATANRVALEACVQARNEGRDLYREGGDILREAGKWSPELAAALDLWKEIKFEFETMDKL
notes: RbcL, large subunit of ribulose-1,5-bisphosphate carboxylase/oxygenase, Synechococcus elongatus PCC7942, gene synpcc7942_1426 amplified from genomic DNA; The complex was captured on Ni-IMAC as a 'His-fusion complex'; also called RbcL8; RbcL8 core; source: E. coli BL21 DE3, co-expressed with Raf1 (pET19b-RbcL-Raf1) and GroES/EL, purified as a complex (Ni-IMAC, Superdex 200)
B2: Rubisco accumulation factor 1 (Raf1) (Synechococcus elongatus PCC7942), recombinant (natural protein, UniProt Q31Q05 1-356, looked up)
chain: MREFTPTTLSEEERQELLGQLRRKEGRWLAWARACQTLLKNGLNPQTLFEATGFEPIQQNQITVAMQVYDSILRQDPPAHVRETYQEWGSDLLYELRELDQEQRSLCAQLALERKLDADQIREVAKATKDFCRLPKQPENFDRHPGDAVAHQCWRLAQERTDLTERSRLIARGLQFAQSAGARALIEALLLDLSGVPSRKPPMLPIYRLETEEDLPRLLPFAGTLPLSSSQIEAIAAVEAEGPFGLVSSPQGQQWLALPGWQAILTAEDPIACLEQIDRLPNAPEGPTEAVVLVVDRADRDWDADHFFLVEQAEGARIQWSPSAIAAPILGRLVLILRPKRVLDEAAIATPWQFEE
notes: Raf1, Rubisco accumulation (assembly) factor 1, Synechococcus elongatus PCC7942, gene synpcc7942_0833 amplified from genomic DNA; N-terminal α-helical domain (Raf1α), flexible linker, C-terminal β-sheet dimerization domain (Raf1β); Only the Raf1α domains are modelled in PDB 6SMH; Raf1β could not be resolved; Four Raf1 dimers (eight chains) sit on one RbcL8 core; also called Rubisco assembly …

Molecular target: the molecule itself
Assay: cryo-EM structure; RbcL-Raf1 supercomplex co-expressed with GroES/EL in E. coli, purified by Ni-IMAC and Superdex 200; 1.2 mg/mL on Quantifoil grids; 200 kV Tecnai F20; 16,022 particles; 4.28 Å

Row | Protein | stoichiometry N
1 | B1 | 8
2 | B2 | 2
